Tests used:
[1] = system: Cas13b-t1-REPAIR R and H to A in both HEPN domains (numbering not given) (Atlantic deep subsurface metagenome); assay: cell_activity; conditions: non-targeting control
[2] = system: Cas13b-t3-REPAIR R and H to A in both HEPN domains (numbering not given) (Planctomycetes bacterium isolate B28_G16); assay: cell_activity; conditions: non-targeting control

Substance | activity (normalized RLU) [1] | activity (normalized RLU) [2]
non-targeting editing gRNA (b-t1) ; Cypridina luciferase W85X mRNA | 0.00795 | –
non-targeting editing gRNA (b-t3) ; Cypridina luciferase W85X mRNA | – | 0.00368
